Values of other authors in PMC3193156.

Columns and labels:
[1] = target: His80 (UniProt position 80, GNGLGHEFLND); assay: NMR
[2] = target: Cys95 (UniProt position 95, GQSRFCIFSSS); assay: NMR
[3] = tested on: His103; conditions: Resting state (free reduced enzyme)
[4] = tested on: Cys117; conditions: Resting state (free reduced enzyme)

| Substance | pKa [1] | pKa [2] | pKa [3] | pKa [4] |
| --- | --- | --- | --- | --- |
| Methionine-R-sulfoxide reductase B1 (MsrB1, selenoprotein R), Cys95 form (Mus musculus; U95C) | 5.7 | 6.0 | – | – |
| Methionine sulfoxide reductase B (MsrB domain of PilB) (Neisseria meningitidis) | – | – | 6.6 | 9.3 |
